Literature values, collected in article PMC6953019.
pKd: −log10 of the molar value.

Biological target: TβRII (Homo sapiens) (UniProt P37173)
Test: SPR

TβRII (Homo sapiens), sequence (P37173 23-166): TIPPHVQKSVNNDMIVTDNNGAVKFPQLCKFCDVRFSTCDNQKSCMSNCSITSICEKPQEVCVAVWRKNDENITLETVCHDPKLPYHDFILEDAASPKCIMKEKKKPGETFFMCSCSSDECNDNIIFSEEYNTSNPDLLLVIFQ
TGFβ2, sequence (P61812 303-414): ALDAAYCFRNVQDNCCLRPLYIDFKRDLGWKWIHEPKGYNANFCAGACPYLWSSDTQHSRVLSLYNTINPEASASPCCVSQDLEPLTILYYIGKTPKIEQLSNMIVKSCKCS

- pKd: 8.30
Substance: TGFβ2 (from UniProt P61812)
